# Tests used:
# [1] = biological target: C108 SOSIP.664 trimer (HIV-1 (isolate C108.c03)); assay: negative-stain EM; PGT145-purified SOSIPs; class averages
# [2] = biological target: C108 SOSIP.664 trimer (HIV-1 (isolate C108.c03)); assay: SEC; PGT145-affinity-purified SOSIPs on a Superdex 200 10-300 GL column in PBS
# [3] = biological target: CRF250 SOSIP.664 trimer (HIV-1 (isolate CRF-T250-4)); assay: negative-stain EM; PGT145-purified SOSIPs; class averages
# [4] = biological target: CRF250 SOSIP.664 trimer (HIV-1 (isolate CRF-T250-4)); assay: SEC; PGT145-affinity-purified SOSIPs on a Superdex 200 10-300 GL column in PBS
# [5] = biological target: MGRM8 SOSIP.664 trimer (HIV-1 (isolate MGRM_AG_002_8)); assay: negative-stain EM; PGT145-purified SOSIPs; class averages
# [6] = biological target: MGRM8 SOSIP.664 trimer (HIV-1 (isolate MGRM_AG_002_8)); assay: SEC; PGT145-affinity-purified SOSIPs on a Superdex 200 10-300 GL column in PBS
# [7] = biological target: WITO SOSIP.664 trimer (HIV-1 (isolate WITO4160.33)); assay: negative-stain EM; PGT145-purified SOSIPs; class averages
# [8] = biological target: WITO SOSIP.664 trimer (HIV-1 (isolate WITO4160.33)); assay: SEC; PGT145-affinity-purified SOSIPs on a Superdex 200 10-300 GL column in PBS
substance,measurement,setting,value
C108 SOSIP.664 trimer (complex),stoichiometry N,[1],3
same,stoichiometry N,[2],3
CRF250 SOSIP.664 trimer (complex),stoichiometry N,[3],3
same,stoichiometry N,[4],3
MGRM8 SOSIP.664 trimer (complex),stoichiometry N,[5],3
same,stoichiometry N,[6],3
WITO SOSIP.664 trimer (complex),stoichiometry N,[7],3
same,stoichiometry N,[8],3

# Reference: PMC5640805
